“Also recorded” adds a separate entry of the source.
What was measured:
uPARAP [1] = molecular target: T1, uPARAP (Homo sapiens, UniProt Q9UBG0); experiment: Antibody reactivity with uPARAP; assay type: binding; conditions: listed as 2h9
T1 sequence (Q9UBG0 31-1479): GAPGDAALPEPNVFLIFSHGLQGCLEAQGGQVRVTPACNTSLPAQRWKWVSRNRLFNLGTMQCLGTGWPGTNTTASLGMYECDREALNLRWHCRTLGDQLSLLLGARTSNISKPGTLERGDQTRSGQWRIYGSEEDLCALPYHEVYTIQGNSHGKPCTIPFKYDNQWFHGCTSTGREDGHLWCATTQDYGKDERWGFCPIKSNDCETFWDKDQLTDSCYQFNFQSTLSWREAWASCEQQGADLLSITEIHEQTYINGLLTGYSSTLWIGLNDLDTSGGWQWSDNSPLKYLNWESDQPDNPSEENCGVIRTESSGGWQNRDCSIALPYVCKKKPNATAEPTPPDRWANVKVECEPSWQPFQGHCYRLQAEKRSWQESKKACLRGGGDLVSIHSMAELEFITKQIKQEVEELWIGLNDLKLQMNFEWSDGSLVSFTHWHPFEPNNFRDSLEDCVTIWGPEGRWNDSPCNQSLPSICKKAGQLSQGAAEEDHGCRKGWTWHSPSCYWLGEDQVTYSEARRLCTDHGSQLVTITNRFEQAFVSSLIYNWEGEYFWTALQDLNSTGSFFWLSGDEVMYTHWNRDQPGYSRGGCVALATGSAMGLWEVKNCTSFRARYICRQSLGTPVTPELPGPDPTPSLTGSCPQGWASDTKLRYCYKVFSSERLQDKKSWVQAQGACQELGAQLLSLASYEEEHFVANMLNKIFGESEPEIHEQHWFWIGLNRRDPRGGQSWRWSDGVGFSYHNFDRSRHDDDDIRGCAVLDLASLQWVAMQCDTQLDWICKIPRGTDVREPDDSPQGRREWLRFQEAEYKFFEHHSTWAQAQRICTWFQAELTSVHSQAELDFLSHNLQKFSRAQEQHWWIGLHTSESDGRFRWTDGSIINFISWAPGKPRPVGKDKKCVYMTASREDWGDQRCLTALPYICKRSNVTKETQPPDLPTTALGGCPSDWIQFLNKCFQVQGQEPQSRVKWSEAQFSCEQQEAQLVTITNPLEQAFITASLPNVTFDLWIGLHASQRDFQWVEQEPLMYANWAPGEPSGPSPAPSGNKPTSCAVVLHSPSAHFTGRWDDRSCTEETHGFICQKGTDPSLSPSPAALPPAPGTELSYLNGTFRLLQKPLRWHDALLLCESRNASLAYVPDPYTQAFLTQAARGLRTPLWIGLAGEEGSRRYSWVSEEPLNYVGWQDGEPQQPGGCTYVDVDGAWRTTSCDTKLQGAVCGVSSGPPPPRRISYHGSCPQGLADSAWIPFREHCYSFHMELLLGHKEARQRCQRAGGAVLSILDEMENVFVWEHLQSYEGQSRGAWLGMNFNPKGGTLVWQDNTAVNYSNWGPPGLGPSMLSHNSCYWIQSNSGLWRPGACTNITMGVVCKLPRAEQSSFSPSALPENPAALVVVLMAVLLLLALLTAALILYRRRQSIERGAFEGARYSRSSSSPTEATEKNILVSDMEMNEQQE

[2] = molecular target: T2, soluble truncated uPARAP protein containing the first 3 N-terminal domains of human uPARAP (Homo sapiens, UniProt Q9UBG0); experiment: ELISA analysis of uPARAP-binding of mAbs; conditions: after reduction step of conjugation, or in ADC form
T2 construct: a soluble truncated uPARAP protein containing the first 3 N-terminal domains of human uPARAP
T2 sequence (Q9UBG0 31-365): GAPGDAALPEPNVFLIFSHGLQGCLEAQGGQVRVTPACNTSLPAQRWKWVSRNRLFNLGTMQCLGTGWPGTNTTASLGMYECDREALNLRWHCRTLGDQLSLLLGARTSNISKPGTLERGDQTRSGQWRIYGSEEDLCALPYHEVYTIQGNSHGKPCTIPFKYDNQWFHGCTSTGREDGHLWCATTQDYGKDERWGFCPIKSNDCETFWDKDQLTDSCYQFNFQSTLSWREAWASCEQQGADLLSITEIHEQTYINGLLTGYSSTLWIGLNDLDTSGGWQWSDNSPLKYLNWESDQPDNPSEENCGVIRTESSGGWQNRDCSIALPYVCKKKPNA
Procedure: Untreated mAbs (2h9 or aTNP), same mAbs subjected to the reduction procedure of conjugation (see above), or ADCs 2h9-vc-MMAE or aTNP-vc-MMAE, were then employed as a primary antibody, followed by a HRP-conjugated rabbit anti-mouse Ig secondary antibody. Finally an o-phenylenediamine dihydrochloride-containing substrate solution was added, and the color reaction was stopped by adding 1M H2SO4. Plates were read at 492 nm using a plate reader.

[3] = molecular target: T3, soluble recombinant protein consisting of the three N-terminal domains of uPARAP (CysR, FN-II and CTLD-1) (Homo sapiens, UniProt Q9UBG0); conditions: immobilized 2h9, soluble three-domain protein; Jürgensen et al., 2011; cited from earlier work
T3 construct: A soluble recombinant protein consisting of the three n-terminal domains of uPARAP (CysR, FN-II and CTLD-1)
T3 sequence (Q9UBG0 41-360 limits assumed): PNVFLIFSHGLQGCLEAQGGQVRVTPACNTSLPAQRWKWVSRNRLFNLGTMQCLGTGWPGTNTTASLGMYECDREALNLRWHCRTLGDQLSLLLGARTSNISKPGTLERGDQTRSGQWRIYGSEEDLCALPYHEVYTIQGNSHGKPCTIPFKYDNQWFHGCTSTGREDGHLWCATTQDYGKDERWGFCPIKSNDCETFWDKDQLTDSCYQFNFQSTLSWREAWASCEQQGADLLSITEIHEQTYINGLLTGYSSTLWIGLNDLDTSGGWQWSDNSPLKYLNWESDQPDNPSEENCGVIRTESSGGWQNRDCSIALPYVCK

uPARAP [4] = molecular target: T1, uPARAP; experiment: Western blotting of MG63 cell lysate; assay type: binding; design: endogenous in cells; host or cells: MG63 human osteosarcoma cells; conditions: detergent lysate of uPARAP-positive MG63 human osteosarcoma cells
Procedure: For Western blotting, a detergent cell lysate prepared from uPARAP-positive MG63 human osteosarcoma cells was analyzed, using identical concentrations of “2h9 cloned” and “2h9 original” as the primary antibodies. […] No reaction is seen in the absence of primary antibody (negative control).

- Affinity towards uPARAP following conjugation procedure [2]: retained affinity
- Affinity towards uPARAP following conjugation procedure ([2]; listed as 2h9): negligible loss of affinity
B1: mAb 2h9: mouse monoclonal IgG1k anti-uPARAP antibody clone 2.h.9: F12, produced by hybridoma cell culture (protein)
light: DIQMTQSPASQSASLGESVTITCLASQTIGTWLAWYQQKPGKSPQLLIYAATTLTDGVPSRFSGAGSGTKFSLKISSLQAEDFASYFCQEFFSTPFTFGSGTKLELKRADAAPTVSIFPPSSEQLTSGGASVVCFLNNFYPKDINVKWKIDGGERQNGVLNSWTDQDSKDSTYSMSSTLTLTKDEYERHNSYTCEATHKTSTSPIVKSFNRNEC
heavy: QVQLQQPGTELVRPGLSVKLSCKASGYTFTSYWMNWVKQRPGQGLEWIGMIHPSNDEKRINQKFKDKATLTVDKFSSTVYMQVSSPTSEDSAVYYCARGGGDYVGDYALDFWGQGTSVTVSSAKTTPPSVYPLAPGSAAQTNSMVTLGCLVKGYFPEPVTVTWNSGSLSSGVHTFPAVLQSDLYTLSSSVTVPSSTWPSETVTCNVAHPASSTKVDKKIVPRDCGCKPCICTVPEVSSVFIFPPKPKDVLTITLTPKVTCVVVDISKDDPEVQFSWFVDDVEVHTAQTQPREEQFNSTFRSVSELPIMHQDWLNGKEFKCRVNSAAFPAPIEKTISKTKGRPKAPQVYTIPPPKEQMAKDKVSLTCMITDFFPEDITVEWQWNGQPAENYKNTQPIMDTDGSYFIYSKLNVQKSNWEAGNTFTCSVLHEGLHNHHTEKSLSHSPGK
- Reactivity with human uPARAP (uPARAP [1]): reactive against both human and murine uPARAP; also recorded: reacts with both human and mouse uPARAP
- Binding in BIAcore setup [3]: binds to immobilized 2h9
- Reactivity in Western blotting (uPARAP [4]): react specifically with the uPARAP protein

Reference: patent publication US11819552B2, “Antibody-drug conjugates targeting uPARAP” (RIGSHOSPITALET, priority 2016, dated 2023)
